# Reference: patent US20040022780A1, “Serine protease and topical retinoid compositions useful for treatment of acne vulgarise and production of anti-aging effects” (priority 1997, published 2004)
# B1: trypsin (protein, UniProt P00760 24-246, looked up)
# Serine protease 1: IVGGYTCGANTVPYQVSLNSGYHFCGGSLINSQWVVSAAHCYKSGIQVRLGEDNINVVEGNEQFISASKSIVHPSYNSNTLNNDIMLIKLKSAASLNSRVASISLPTSCASAGTQCLISGWGNTKSSGTSYPDVLKCLKAPILSDSSCKSAYPGQITSNMFCAGYLEGGKDSCQGDSGGPVVCSGKLQGIVSWGSGCAQKNKPGVYTKVCNYVSWIKQTIASN
# notes: lyophilyzed trypsin from Sigma-Aldrich, a serine protease, in Hepes buffer mixed with GDL liposomes
# Assays:
# [1] = system: utriculi of Rhino mouse skin; experiment: Rhino mouse utriculus size reduction (whole mount epidermis image analysis); type: in vivo; details: for Utriculus Size Reduction (%) vs. Liposome Control: topical once daily for five days, sacrificed day 8
# Excerpt: The Rhino mouse has been used as an experimental acne model to screen topically active comedolytic and antikeratinizing agents as described in Sundberg, J. P., “The Hairless and Rhino Mutations, Chromosome 14,” Handbook of Mouse Mutations With Skin and Hair Abnormalities 291-312 (1994), which is incorporated herein by reference in its entirety. A recessive mutation on chromosome 14 results in a mouse with wrinkled skin devoid of body hair by age 25 days. At that time, the end of the first hair cycle, the follicular papillae fail to follow the regressing hair follicles and become isolated in the dermis. […] The upper remnants of the hair follicle are filled with sloughed, cornified cells and form utriculi with a small sebaceous gland at their base, resembling an open comedone. The rhino skin becomes progressively loose, forming folds and ridges, due to the expansion of the surface, secondary to abortive hair follicles filling with cornified debris. The utriculi progressively enlarge, forming pilary cists (pseudocomedones), which are dilated follicular infundibula filled with cornified debris.
# RHJ/LE Hairless (“Rhino”) male mice, 5-7 weeks of age, were obtained from Jackson Laboratories (Bar Harbor, Me.), and treated as described in Mezick et al., “Topical and Systemic Effects of Retinoids on Horn-Filled Utriculus Size in the Rhino Mouse: A Model to Quantify “Antikeratinizing” Effects of Retinoids,” 83 J. Invest. Dermatol. 110-113 (1984) (“Mezick”), which is incorporated herein by reference in its entirety.
# (§1) Rhino mice of Example 1 were topically treated with the trypsin compositions (0.001% (w/v)-1% (w/v)) of Example 2 once daily for five days. Animals were sacrificed at day 8 and image analysis was used to quantify the reduction in utriculi size. For image analysis, whole mount epidermis was processed and microscopic measurements were taken according to the methods described in Mezick as well as Bernerd et al., “The Rhino Mouse Model: The Effects of Topically Applied All-Trans Retinoic Acid and CD271 on the Fine Structure of the Epidermis and Urticuli Wall of Pseudocomedones,” 283(2) Arch. Dermatol. Res. 100-107 (1991) and Bouclier et al., “Quantification of Epidermal Histological Changes Induced by Topical Retinoids and CD271 in the Rhino Mouse Model Using a Standardizing Image Analysis Technique,” 4(2) Skin Pharmacol. 65-73 (1991) which are each incorporated herein by reference in their entirety. Empire Imagins Database version 1.1 was used on a Gateway 2000 P5-100 computer for capturing images. Image Pro Plus version 1.3 was used for measurements and Microsoft Excel version 5.0 for data processing. The mean utriculus diameter (μ) and the mean sebaceous gland size (μ^2) were calculated for each treatment group (3 Rhino mice), using 5 random fields, two measurements per field, per animal. Percent reduction in utriculi diameter was calculated in accordance with the methods described in Finley, D. J., “Parallel Line Assays, Statistical Method in Biological Assay,” Charles Griffen & Company Ltd. 69-104 (1978) which is incorporated herein by reference in its entirety.
# [2] = system: Rhino mouse skin; experiment: Transepidermal water loss (TEWL), evaporimeter on dorsal skin; type: in vivo; details: for TEWL: topical once daily for five days
# Excerpt: as §1
# To further characterize the effect of trypsin on the Rhino mouse skin, we measured the transepidermal water loss (“TEWL”) using an “Evaporimeter EPI” evaporimeter available from Servomed AB by first normalizing the evaporimeter with the ambient humidity and then placing the probe on the dorsal skin of the test subject at which point a reading of TEWL was taken.
# [3] = system: hamster ear sebaceous gland; experiment: Hamster ear model, sebaceous gland size; type: in vivo, golden Syrian hamsters
# Protocol: The possible effect of trypsin on the sebaceous component of acne was evaluated using the hamster ear model system. Young golden Syrian hamsters, 45-55 grams upon arrival, were purchased from Charles River Laboratories (Wilmington, Mass.). The ventral side of the hamsters' right ears were treated daily with 10 μl of the trypsin composition of Example 2, five days a week for three weeks, while the left ears were used as untreated controls.
# [4] = system: Rhino mouse skin; experiment: H&E histology of trypsin treated Rhino mouse skin; type: in vivo; details: 0.1% (w/v) trypsin in GDL liposomes daily for five days
# [5] = system: Rhino mouse skin; experiment: Histology after suboptimal trypsin, all-trans retinoic acid or both; type: in vivo; details: suboptimal dose alone: 0.005% (w/v) trypsin or 0.0005% (w/v) all-trans retinoic acid
# Protocol: A first set of Rhino mice of Example 1 were treated with suboptimal doses of the trypsin composition of Example 2. […] A second set of Rhino mice of Example 1 were treated with suboptimal concentrations of the all-trans retinoic acid composition of Example 2. A third set of Rhino mice of Example 1 were treated with both suboptimal doses of the trypsin composition of Example 2 and the all-trans retinoic acid composition of Example 2. In this third set of Rhino mice, the trypsin and all-trans retinoic acid treatments were each administered daily, but at different times (i.e. trypsin in the morning and all-trans retinoic acid in the afternoon). Mice were sacrificed and their skins were examined histologically with the procedure set forth in Example 3.
# [6] = system: elastin fibers in Rhino mouse skin; experiment: Elastin staining of paraffin skin sections, Rhino mouse; type: in vivo; details: trypsin treated Rhino mice vs untreated
# Excerpt: To further study this elasticity effect, skin sections of Rhino mice from Example 1 treated with the trypsin composition of Example 2 were stained for elastin on paraffin sections in accordance with the methods set forth in Kligman, L. H., “Luna's Technique, A Beautiful Stain for Elastin,” 3(2) The Amer. J. of Dermatopathol. 199-200 (1981) which is incorporated herein by reference in its entirety.
# [7] = system: Rhino mouse skin; experiment: Visual irritation (scaling and erythema); type: in vivo; details: up to 1% (w/v) trypsin; not dose dependent
molecule,measurement,setting,value
B1,Utriculus Size Reduction (%) vs. Liposome Control,[1]; Trypsin 0.001% (w/v) in GDL liposomes,26.85 ± 4.38%
same,Utriculus Size Reduction (%) vs. Liposome Control,[1]; Trypsin 0.005% (w/v) in GDL liposomes,19.58 ± 3.06%
same,Utriculus Size Reduction (%) vs. Liposome Control,[1]; Trypsin 0.01% (w/v) in GDL liposomes,33.08 ± 2.15%
same,Utriculus Size Reduction (%) vs. Liposome Control,[1]; Trypsin 0.05% (w/v) in GDL liposomes,43.84 ± 0.62%
same,Utriculus Size Reduction (%) vs. Liposome Control,[1]; Trypsin 0.1% (w/v) in GDL liposomes,50.67 ± 0.83%
same,Utriculus Size Reduction (%) vs. Liposome Control,[1]; Trypsin 0.5% (w/v) in GDL liposomes,54.31 ± 1.33%
same,Utriculus Size Reduction (%) vs. Liposome Control,[1]; Trypsin 1.0% (w/v) in GDL liposomes,54.85 ± 1.02%
same,maximal reduction of utriculus size relative to liposomal control,[1]; further increase in trypsin concentration above ~0.1% (w/v),≤ 55%
same,trypsin concentration at which reduction in utriculus size reached a plateau,[1]; once daily for five days,~0.1 % (w/v)
same,TEWL,[2]; Trypsin 0.001% (w/v),29.53 ± 3.68 g/m^2h
same,TEWL,[2]; Trypsin 0.005% (w/v),26.40 ± 1.77 g/m^2h
same,TEWL,[2]; Trypsin 0.01% (w/v),28.53 ± 2.18 g/m^2h
same,TEWL,[2]; Trypsin 0.05% (w/v),36.57 ± 2.07 g/m^2h
same,TEWL,[2]; Trypsin 0.1% (w/v),42.80 ± 4.33 g/m^2h
same,TEWL,[2]; Trypsin 0.5% (w/v),36.23 ± 1.24 g/m^2h
same,TEWL,[2]; Trypsin 1.0% (w/v),42.00 ± 1.14 g/m^2h
same,trypsin concentration at which TEWL increase reached a plateau,[2]; once daily for five days,~0.05 % (w/v)
same,TEWL compared with retinoid treatment given alone,[2]; trypsin treated mice,lower than that for retinoid treatment given alone
same,Sebaceous Gland Size,"[3]; Trypsin 0.5% (w/v), 10 μl daily on ventral right ear, five days a week for three weeks",95043.0 ± 4269.1 μ^2
same,Percent Size Decrease (%) of sebaceous gland,"[3]; Trypsin 0.5% (w/v), vs. liposome vehicle",−0.36 (vs. liposome %
same,effect on the size of the sebaceous gland,"[3]; hamster ear, daily, five days a week for three weeks",no effect
same,inflammatory cells in skin histology,[4],no inflammatory cells
same,epidermis histology (H&E),[4]; vs untreated,hyperplastic with an increase in the number of cell layers
same,skin histology of treatment given alone vs untreated skin,[5],marked inprovement
same,elastin fibers around the utriculi and the sebaceous glands,[6],increased in thickness and density
same,visual irritation (scaling and erythema),[7],minor scaling and erythema
